Measured values as given in patent publication US20090162369A1, “SYNTHETIC CHIMERIC PEPTIDES” (priority 2007, published 2009).

Columns and labels:
[1] = molecular target: p145 (Streptococcus pyogenes serotype M5, UniProt P02977); conditions: FIG. 3
Method: The purified anti-TN peptide antibodies were tested for their ability to bind to p145.

[2] = system: multiple isolates of GAS; conditions: Pruksakorn et al., 1994a; cited from earlier work
[3] = system: GAS; conditions: cited from earlier work
[4] = system: B10.BR mice; assay: Peptide-specific serum IgG titres of B10.BR mice immunised with peptides conjugated to diphtheria toxoid; assay type: in vivo; conditions: peptides conjugated to DT
Excerpt: FIG. 9: The geometric mean of peptide-specific serum IgG titres of B10.BR mice immunised with different peptides conjugated to diphtheria toxoid (DT). Control mice were immunised with vehicle (PBS). Five mice were immunised per group and error bars show the standard error of the mean (SEM). The highest titres were obtained after primary immunisation plus two booster injections. Although titres had decreased 43 days after the final boost (Day 71), they remained reasonably high.
Female B10.BR mice were immunized with TN18, TN19, J18 and J19 peptides conjugated to diphtheria toxoid (DT). The following immunization protocol was used.
The peptide specific titres in the murine sera samples on day 35, after primary immunization and two boosters, were analyzed.
The self-peptide titres throughout the immunization protocol were analyzed at day 20, day 27, day 35 and day 71.

Row | Sequence | binding affinity of purified anti-TN peptide antibodies for p145 [1] | further results
1 | LRRDLDAEDEAKKQVEKALEC [TN peptide 3] | highest binding affinities | –
2 | LRRDLDAEREAKKQVERALEC [TN peptide 5] | highest binding affinities | –
3 | LRRDLDASNEAKKQVEMALEC [TN peptide 14] | highest binding affinities | –
4 | LRRDLDASREAKKQVEKALE [p145] | – | opsonisation and killing of GAS by mouse antibodies raised against the peptide [2]: can opsonise and kill multiple isolates of GAS; inhibition of in vitro killing mediated by human sera [3]: can inhibit in vitro killing mediated by human sera
5 | LRRDLDASREAKNQVEMALEC [TN peptide 19] | highest binding affinities | –
6 | LRRDLDASREAKNQVERALEC [TN peptide 18] | highest binding affinities | –
7 | LRRDLDAVNEAKKQVEKALEC [TN peptide 7] | highest binding affinities | –
8 | LRRDLDAVREAKKQVEMALEC [TN peptide 11] | highest binding affinities | –
9 | QAEDKVKQSREAKNQVEMALKQLEDKVQ [J19] | – | immunogenicity compared with the peptides disclosed in WO96/11944 [4]: improved immunogenicity
10 | QAEDKVKQSREAKNQVERALKQLEDKVQ [J18] | – | immunogenicity compared with the peptides disclosed in WO96/11944 [4]: improved immunogenicity
